Measured values as given in patent publication US7544477B2, “Circularly permutated, interaction-activated proteins” (KaloBios, Inc., priority 2000, dated 2009).

Key:
[1] = target: hetero-dimerizing leucine zipper helix from the c-jun subunit of the AP-1 transcription factor; assay: cell-based or functional assay
TG1 cells = assay: Activation of TEM-1 β-lactamase fragment complementation by disulfide-assisted fos-jun interaction (plating on ampicillin); assay type: cell-based, E. coli; conditions: without a stabilizing peptide; same expression conditions
Method: Cysteines were added to the sequences of α197 and ω198, between the break-point termini and the linkers leading to the heterologous interactors.
Disulfide formation was made to be more dependent on the heterologous interaction by two modifications. First, disulfide formation can be inhibited by inclusion of a reducing agent in the growth medium. […] Secondly, the cysteines were shifted by one residue each away form the break-point and into the β-lactamase sequence, so that they became separated in the native fold by an additional ˜8 Å.

Chain of hetero-dimerizing leucine zipper helix from the c-jun subunit of the AP-1 transcription factor (P05412 280-308): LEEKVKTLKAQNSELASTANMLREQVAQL

hetero-dimerizing leucine zipper helix from the c-fos subunit of the AP-1 transcription factor (peptide)
Hi Amp (max ampicillin with >10% plating), break-point A227/G228, +Fos/Jun [1]: 50 µg/mL
Hi Amp (max ampicillin with >10% plating), break-point A227/G228, +S-S, +Fos/Jun [1]: 200 µg/mL
Hi Amp (max ampicillin with >10% plating), break-point E63/E64, +S-S, +Fos/Jun [1]: 25 µg/mL
Hi Amp (max ampicillin with >10% plating), break-point E197/L198, +Fos/Jun [1]: 50 µg/mL
Hi Amp (max ampicillin with >10% plating), break-point E197/L198, +S-S, +Fos/Jun [1]: 100 µg/mL
Hi Amp (max ampicillin with >10% plating), break-point G253/K254, +Fos/Jun [1]: 50 µg/mL
Hi Amp (max ampicillin with >10% plating), break-point G253/K254, +S-S, +Fos/Jun [1]: 400 µg/mL
Hi Amp (max ampicillin with >10% plating), break-point K215/V216, +Fos/Jun [1]: 25 µg/mL
Hi Amp (max ampicillin with >10% plating), break-point K215/V216, +S-S, +Fos/Jun [1]: 100 µg/mL
Hi Amp (max ampicillin with >10% plating), break-point N52/S53, +S-S, +Fos/Jun [1]: 25 µg/mL
Hi Amp (max ampicillin with >10% plating), break-point P174/N175, +Fos/Jun [1]: 50 µg/mL
Hi Amp (max ampicillin with >10% plating), break-point P174/N175, +S-S, +Fos/Jun [1]: 200 µg/mL
Hi Amp (max ampicillin with >10% plating), break-point Q99/N100, +S-S, +Fos/Jun [1]: 25 µg/mL
activation index, break-point P174/N175, fos-jun with disulfide [1]: 1e+07
activation index, α197/ω198 with break-point cysteines, 10 mM DTT, 100 µg/ml ampicillin [1]: > 1000 fold
activation index, α197/ω198 with cysteines shifted by one residue, 50 µg/ml ampicillin [1]: > 100000
ampicillin concentration of recovery, α197/ω198 with break-point tri-peptides, strain DH5α [1]: 800 µg/mL
ampicillin concentration of recovery, α197/ω198 with break-point tri-peptides, strain TG1 [1]: 400 µg/mL
plating efficiency on 25 µg/ml ampicillin, wild-type α197-jun + fos-ω198 [1]: 30%
plating efficiency on 50 µg/ml ampicillin, α197-fos + jun-ω198 alone [1]: 1%
plating efficiency on 50 µg/ml ampicillin, α197-fos + jun-ω198 with GRE-trxA in trans [1]: 100%
plating efficiency on 50 µg/ml ampicillin, α197/ω198 with cysteines shifted by one residue [1]: 10%
plating efficiency on 100 µg/ml ampicillin, wild-type α197-jun + fos-ω198 (colonies per cell) [1]: < 1e-06
plating efficiency on 400 µg/ml ampicillin, break-point G253/K254, fos-jun with disulfide [1]: > 25%

B1: wild-type TEM-1 β-lactamase: intact TEM-1 β-lactamase of E. coli (protein, UniProt P62593 24-286, looked up)
Beta-lactamase TEM: HPETLVKVKDAEDQLGARVGYIELDLNSGKILESFRPEERFPMMSTFKVLLCGAVLSRVDAGQEQLGRRIHYSQNDLVEYSPVTEKHLTDGMTVRELCSAAITMSDNTAANLLLTTIGGPKELTAFLHNMGDHVTRLDRWEPELNEAIPNDERDTTMPAAMATTLRKLLTGELLTLASRQQLIDWMEADKVAGPLLRSALPAGWFIADKSGAGERGSRGIIAALGPDGKPSRIVVIYTTGSQATMDERNRQIAEIGASLIKHW
Ampicillin concentration on which cells plate (TG1 cells): ≤ 1000 µg/mL
